Columns and labels:
[1] = target: VP4 spike protein, unprocessed precursor, porcine rotavirus strain OSU (clone OSU-C5111) (porcine rotavirus strain OSU) (UniProt P11114); experiment: cryo-EM structure; single-particle three-dimensional reconstruction with icosahedral symmetry of vitrified purified virions (NTR-TLP and TR-TLP of strains SA11 and OSU), 200 kV; virions assembled in infected MA104 cells and purified in CsCl gradients; 11.9-15.4 Å (FSC 0.3)
[2] = target: VP4 spike protein, unprocessed precursor, rotavirus strain SA11 (clone SA11-C4111) (simian rotavirus strain SA11); experiment: as above

In the case of “VP4 spike protein, unprocessed precursor, porcine rotavirus strain OSU (clone OSU-C5111) (from UniProt P11114 1-776) (natural protein)”, the stoichiometry N [1] was 3.
“VP4 spike protein, unprocessed precursor, rotavirus strain SA11 (clone SA11-C4111) (natural protein)” showed a stoichiometry N [2] of 3.

Source: article PMC4038622
